# Numbering of substitutions follows the chain as printed. In names and notes the source's numbering stands.
# T1: FcgRIIaR (human, UniProt P12318 34-217)
# T1 construct: extracellular domain; also called FcγRIIa R; FcγRIIa type R; not shown: His tag at the C terminus
# T1 sequence (looked up): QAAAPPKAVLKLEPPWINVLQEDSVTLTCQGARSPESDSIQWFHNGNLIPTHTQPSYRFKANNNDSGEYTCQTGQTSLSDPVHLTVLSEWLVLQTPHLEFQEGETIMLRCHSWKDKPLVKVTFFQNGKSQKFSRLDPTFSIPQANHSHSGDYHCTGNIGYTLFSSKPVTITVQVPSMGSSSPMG
# T2: FcgRIIaH (human, UniProt P12318 34-217)
# T2 construct: extracellular domain; also called FcγRIIa H; FcγRIIa type H; not shown: His tag at the C terminus
# T2 sequence (looked up): T1 sequence (looked up) with R134H
# T3: FcgRIIb (human, UniProt P31994 43-217)
# T3 construct: extracellular domain; also called FcγRIIb; 2b; not shown: His tag at the C terminus
# T3 sequence (looked up): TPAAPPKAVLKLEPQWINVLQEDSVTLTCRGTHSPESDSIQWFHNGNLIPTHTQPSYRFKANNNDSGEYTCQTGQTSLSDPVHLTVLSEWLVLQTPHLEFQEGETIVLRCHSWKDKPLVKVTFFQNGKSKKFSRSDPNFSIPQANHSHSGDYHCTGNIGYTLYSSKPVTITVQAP
# B1: H240-Kn033/H240-Hl033/L73-k0 (antibody, human IgG1, kappa)
# heavy 1: not shown
# heavy 2: not shown
# light: DIQMTQSPSSLSASVGDRVTITCRASQDIHKYIAWYQQKPGQAPRLLIQYTSTLQPGVPSRFSGSGSGTDYTFTISSLQPEDIATYYCLQYEQLRTFGGGTKVEIKRTVAAPSVFIFPPSDEQLKSGTASVVCLLNNFYPREAKVQWKVDNALQSGNSQESVTEQDSKDSTYSLSSTLTLSKADYEKHKVYACEVTHQGLSSPVTKSFNRGEC
# notes: Anti-epiregulin IgG1 with knobs-into-holes alterations only
# B2: H240-afucosyl_G1d/L73-k0 (antibody, human IgG1, kappa)
# heavy: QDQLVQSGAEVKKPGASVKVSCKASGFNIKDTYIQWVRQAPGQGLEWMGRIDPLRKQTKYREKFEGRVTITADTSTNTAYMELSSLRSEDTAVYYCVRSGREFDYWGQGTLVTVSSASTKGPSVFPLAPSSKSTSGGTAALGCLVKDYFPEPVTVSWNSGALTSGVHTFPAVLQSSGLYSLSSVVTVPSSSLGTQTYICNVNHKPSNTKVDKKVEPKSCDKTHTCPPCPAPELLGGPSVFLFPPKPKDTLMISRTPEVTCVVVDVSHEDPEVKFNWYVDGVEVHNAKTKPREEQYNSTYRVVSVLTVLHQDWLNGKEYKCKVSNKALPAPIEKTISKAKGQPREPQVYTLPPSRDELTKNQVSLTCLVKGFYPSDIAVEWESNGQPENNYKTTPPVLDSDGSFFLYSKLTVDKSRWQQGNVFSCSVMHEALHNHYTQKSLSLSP
# light: B1 light
# modifications: fucose removed from the N-linked sugar chain (afucosylated)
# notes: also called afucosylated antibody
# B3: H240-Kn204/H240-Hl211/L73-k0 (antibody, human IgG1, kappa)
# heavy 1: QDQLVQSGAEVKKPGASVKVSCKASGFNIKDTYIQWVRQAPGQGLEWMGRIDPLRKQTKYREKFEGRVTITADTSTNTAYMELSSLRSEDTAVYYCVRSGREFDYWGQGTLVTVSSASTKGPSVFPLAPSSKSTSGGTAALGCLVKDYFPEPVTVSWNSGALTSGVHTFPAVLQSSGLYSLSSVVTVPSSSLGTQTYICNVNHKPSNTKVDKKVEPKSCDKTHTCPPCPAPEYLGGPSVFLFPPKPKDTLMISRTPEVTCVVVDVSHEDPEVKFNWYVDGVEVHNAKTYPREEQWNSTYRVVSVLTVLHQDWLNGKEYKCKVSNKALPAPIEKTISKAKGQPREPQVCTLPPSRDELTKNQVSLWCLVKGFYPSDIAVEWESNGQPENNYKTTPPVLDSDGSFFLYSKLTVDKSRWQQGNVFSCSVMHEALHNHYTQKSLSLSP
# heavy 2: QDQLVQSGAEVKKPGASVKVSCKASGFNIKDTYIQWVRQAPGQGLEWMGRIDPLRKQTKYREKFEGRVTITADTSTNTAYMELSSLRSEDTAVYYCVRSGREFDYWGQGTLVTVSSASTKGPSVFPLAPSSKSTSGGTAALGCLVKDYFPEPVTVSWNSGALTSGVHTFPAVLQSSGLYSLSSVVTVPSSSLGTQTYICNVNHKPSNTKVDKKVEPKSCDKTHTCPPCPAPELLGGPDVFLFPPKPKDTLMISRTPEVTCVVVDVSHEDPEVKFNWYVDGVEVHNAKTKPREEQYNSTYRVVSVLTVLHQDWLNGKEYKCKVSNKALPMPIEVTISKAKGQPREPQVYTLPPSRCELTKNQVSLSCAVKGFYPSDIAVEWESNGQPENNYKTTPPVLDSDGSFFLVSKLTVDKSRWQQGNVFSCSVMHEALHNHYTQKSLSLSP
# light: B1 light
# B4: H240-Kn032/H240-Hl032/L73-k0 (antibody, human IgG1, kappa)
# heavy 1: B3 heavy 1 with Y233L, S238D, Y289K, W295Y, A329L, I331E
# heavy 2: B3 heavy 2 with M329L, I331E, V333K
# light: B1 light
# notes: S239D/A330L/I332E in both H chains
# B5: H240-Kn205/H240-Hl212/L73-k0 (antibody, human IgG1, kappa)
# heavy 1: B3 heavy 1 with Y289K, S297C
# heavy 2: B3 heavy 2 with M329A
# light: B1 light
# B6: H240-Kn037/H240-Hl036/L73-k0 (antibody, human IgG1, kappa)
# heavy 1: B3 heavy 1 with Y233L, G235A, S238D, Y289K, W295Y, I331E
# heavy 2: B3 heavy 2 with G235A, M329A, I331E, V333K
# light: B1 light
# notes: It says both H chains have G236A/S239D/I332E
# B7: GpH7-A5/GpH7-HA5/GpL16-k0 (antibody, human IgG1, kappa)
# heavy 1: not shown
# heavy 2: QVQLVQSGAEVKKPGASVTVSCKASGYTFTDYEMHWIRQPPGEGLEWIGAIDPKTGDTAYSESFQDRVTLTADKSTSTAYMELSSLTSEDTAVYYCTRFYSYTYWGQGTLVTVSSASTKGPSVFPLAPSSKSTSGGTAALGCLVKDYFPEPVTVSWNSGALTSGVHTFPAVLQSSGLYSLSSVVTVPSSSLGTQTYICNVNHKPSNTKVDKKVEPKSCDKTHTCPPCPAPEYLGGPSVFLFPPKPKDTLMISRTPEVTCVVVDVSHEDPEVKFNWYVDGVEVHNAKTKPREEQYNSTYRVVSVLTVLHQDWLNGKEYKCKVSNKALRAPIEKTISKAKGQPREPQVYTLPPSRDELTKNQVSLTCLVKGFYPSDIAVEWESNGQPENNYKTTPPVLDSDGSFFLYSKLTVDKSRWQQGNVFSCSVMHEALHNHYTQESLSLSP
# light: DIVMTQSPLSLPVTPGEPASISCQASESLVHSNRNTYLHWYLQKPGQSPQLLIYKVSNRFSGVPDRFSGSGSGTDFTLKISRVEAEDVGVYYCSQNTHVPPTFGQGTKVEIERTVAAPSVFIFPPSDEQLKSGTASVVCLLNNFYPREAKVQWKVDNALQSGNSQESVTEQDSKDSTYSLSSTLTLSKADYEKHKVYACEVTHQGLSSPVTKSFNRGEC
# notes: Anti-glypican-3 IgG1 heterodimer; L234Y and P329R in H2
# B8: GpH7-A5/GpH7-HA11/GpL16-k0 (antibody, human IgG1, kappa)
# heavy 1: not shown
# heavy 2: B7 heavy 2 with Y232L, S296A
# light: B7 light
# notes: Anti-glypican-3 IgG1 heterodimer; S298A and P329R in H2
# B9: GpH7-A48/GpH7-B3-01-15Y/GpL16-k0 (antibody, human IgG1, kappa)
# heavy 1: B7 heavy 2 with Y232L, D354K, H433R, E437K
# heavy 2: not shown
# light: B7 light
# notes: Anti-glypican-3 IgG1 heterodimer; P329R in H1, L234Y in H2
# B10: GpH7-A48/GpH7-B3-03-20W/GpL16-k0 (antibody, human IgG1, kappa)
# heavy 1: B7 heavy 2 with Y232L, D354K, H433R, E437K
# heavy 2: not shown
# light: B7 light
# notes: Anti-glypican-3 IgG1 heterodimer; P329R in H1, G236W in H2
# B11: GpH7-A5/GpH7-HA18/GpL16-k0 (antibody, human IgG1, kappa)
# heavy 1: not shown
# heavy 2: B7 heavy 2 with Y232L, I330E
# light: B7 light
# notes: Anti-glypican-3 IgG1 heterodimer; I332E and P329R in H2
# B12: GpH7-A5/GpH7-HA15/GpL16-k0 (antibody, human IgG1, kappa)
# heavy 1: not shown
# heavy 2: B7 heavy 2 with Y232L, A328L
# light: B7 light
# notes: Anti-glypican-3 IgG1 heterodimer; A330L and P329R in H2
# B13: GpH7-A48/GpH7-B3-06-09D/GpL16-k0 (antibody, human IgG1, kappa)
# heavy 1: B7 heavy 2 with Y232L, D354K, H433R, E437K
# heavy 2: not shown
# light: B7 light
# notes: Anti-glypican-3 IgG1 heterodimer; P329R in H1, S239D in H2
# B14: GpH7-A5/GpH7-HA6/GpL16-k0 (antibody, human IgG1, kappa)
# heavy 1: not shown
# heavy 2: B7 heavy 2 with Y232L, G234W
# light: B7 light
# notes: Anti-glypican-3 IgG1 heterodimer; G236W and P329R in H2
# Target: T1, FcgRIIaR
# Assay: SPR (Biacore); KD of H240-Kn033/H240-Hl033/L73-k0 divided by KD of the variant
# Procedure: (§1) Next, the amino acid at position 330 was examined. The A330M alteration has been introduced into H240-Hl076 of H240-Kn125/H240-Hl076/L73-k0. […] L73-k0 was used as the common antibody L chain. Binding of the produced variants to FcgRIa, FcgRIIaR, FcgRIIaH, FcgRIIb, FcgRIIIaF, and FcgRIIIaV was measured according to the method of Reference Example 8.
# (§2) Analysis of interaction between objective antibody and the FcγR was carried out using Biacore T100 (GE Healthcare), Biacore T200, Biacore A100, and Biacore 4000. HBS-EP+ (GE Healthcare) was used as the running buffer, and the measurement temperature was set to 25° C. Chips produced by immobilizing the antigen peptide by the amine coupling method to a Series S sensor Chip CM5 (GE Healthcare), chips produced by allowing preliminarily biotinylated antigen peptides to interact with and immobilize onto a Series S Sensor Chip SA (certified) (GE Healthcare), chips produced by immobilizing Protein L (ACTIGEN, BioVision) to Series S Sencor Chip CM5 (GE Healthcare), or chips produced by immobilizing Protein A/G (Thermo Scientific) to Series S Sencor Chip CM5 (GE Healthcare) were used. Antibodies of interest were captured onto these chips, and allowed to interact to each FcγR diluted with running buffer. To regenerate and repeatedly use the chip, the antibodies captured onto the chip were washed off by reacting 10 mM glycine-HCl, pH 1.5.
row,fold 2aR [fold],Binder
1,1,B1
2,1.5,B2
3,1.2,B3
4,2.2,B4
5,1.2,B5
6,25.5,B6

# Target: T2, FcgRIIaH
# Assay: as above
# Procedure: as §1, §2
row,fold 2aH [fold],Binder
1,1,B1
2,0.7,B2
3,0.7,B3
4,0.8,B4
5,1.4,B5
6,11.3,B6

# Target: T3, FcgRIIb
# Assay: as above
# Procedure: as §1, §2
row,fold 2b [fold],Binder
1,1,B1
2,1.3,B2
3,2.5,B3
4,5.3,B4
5,2.1,B5
6,8.7,B6

# Target: T4, FcgRIIIaF (human, UniProt P08637 17-208)
# T4 construct: extracellular domain; Polymorphic site after J. Clin. Invest; also called FcγRIIIa F; 3aF; not shown: His tag at the C terminus
# T4 sequence (P08637 17-208): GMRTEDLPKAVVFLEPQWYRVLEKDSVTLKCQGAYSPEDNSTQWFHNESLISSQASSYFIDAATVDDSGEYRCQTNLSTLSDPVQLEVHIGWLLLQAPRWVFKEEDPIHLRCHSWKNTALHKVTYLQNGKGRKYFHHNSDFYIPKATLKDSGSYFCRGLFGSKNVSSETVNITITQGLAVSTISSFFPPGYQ
# Assay: as above
# Procedure: as §1, §2
row,fold 3aF [fold],Binder
1,1,B1
2,3.7,B2
3,20.7,B3
4,31.9,B4
5,24.2,B5
6,13.8,B6

# Target: T5, FcgRIIIaV (human, UniProt P08637 17-208)
# T5 construct: extracellular domain; Polymorphic site after J. Clin. Invest; also called FcγRIIIa V; 3aV; not shown: His tag at the C terminus
# T5 sequence (P08637 17-208 F176V limits assumed): as the sequence (P08637 17-208) above, with F160V counted along it
# Assay: as above
# Procedure: as §1, §2
row,fold 3aV [fold],Binder
1,1,B1
2,7,B2
3,6.5,B3
4,15.5,B4
5,11.4,B5
6,7.1,B6

# Target: T6, FcγRIIIa (human, UniProt P08637 17-208)
# T6 construct: extracellular domain; also called FcgRIIIa; CD16A; not shown: His tag attached to the C terminus
# T6 sequence (P08637 17-208): as the sequence (P08637 17-208) above
# Assay: SPR (Biacore), antibody captured on antigen-peptide chip, FcγR as analyte; relative binding amount
# Source text: The expression vectors for the respective H chains were combined in a way that each of the alterations L234Y, G236W, S298A, S239D, A330L, and I332E is present in the same H chain as P329R or in the different H chain from P329R, and the expression vector GpL16-k0 for the L chain was combined with them. Antibodies of interest were expressed and prepared according to the method described in Reference Example 1. The prepared antibodies were used to assay the FcγRIIIa-binding activity. The result of assessment using P329R on the direction of FcγRIIIa recognition by L234Y, G236W, S298A, S239D, A330L, and I332E is summarized in Table 12.
# Analysis of interaction between objective antibody and the FcγR was carried out using Biacore T100 (GE Healthcare). HBS-EP+ (GE Healthcare) was used as the running buffer, and the measurement temperature was set to 25° C. Chips produced by immobilizing the antigen peptide by the amine coupling method to a Series S Sencor Chip CM5 (GE Healthcare), or alternatively, chips produced by allowing preliminarily biotinylated antigen peptides to interact with and immobilize onto a Series S Sensor Chip SA (certified) (GE Healthcare) were used. Antibodies of interest were captured onto an antigen peptide-immobilized chip, and allowed to interact to each FcγR diluted with running buffer. To regenerate and repeatedly use the chip, the antibodies captured on the chip were washed off by reacting 10 mM glycine-HCl, pH 1.5.
row,FcγRIIIa BINDING ACTIVITY (relative),Binder
1,"60 relative, GpH7-A5/GpH7-B3/GpL16-k0 = 100",B7
2,"84 relative, GpH7-A5/GpH7-B3/GpL16-k0 = 100",B8
3,"11 relative, GpH7-A5/GpH7-B3/GpL16-k0 = 100",B9
4,"13 relative, GpH7-A5/GpH7-B3/GpL16-k0 = 100",B10
5,"35 relative, GpH7-A5/GpH7-B3/GpL16-k0 = 100",B11
6,"32 relative, GpH7-A5/GpH7-B3/GpL16-k0 = 100",B12
7,"123 relative, GpH7-A5/GpH7-B3/GpL16-k0 = 100",B13
8,"56 relative, GpH7-A5/GpH7-B3/GpL16-k0 = 100",B14

# — patent US20150344570A1 (published 2015)
